B4: human eotaxin (ligand)
chain: not shown
modifications: 125I label (Bolton Hunter reagent) where used as radioligand

For experiment [1], the target named is T1, MIP-1α binding sites on human eosinophils.
T1 construct: also called receptor for MIP-1α on eosinophils
Nature of the experiment: Scatchard analysis, radioligand binding to human eosinophils. As to the method:
(§1) In microfuge tubes, 5 ×10^5 cells were incubated with 0.1 nM radiolabeled chemokine (purchased from New England Nuclear, Massachusetts) in 200 µl aliquots at room temperature for 60 minutes. The cells were either incubated with radiolabeled chemokine alone, or together with unlabeled chemokines (from PeproTech) as competitors, which were used at the indicated concentrations. At the end of incubation, cells were washed 3 times in the binding buffer, each wash consisting of centrifugation in a microfuge at 7,000×g for 2 minutes. After the wash, the pellets were transferred into LP3 tubes and the radioactivity of the cells, which represented the amount of binding was measured in a gamma counter. All samples were in duplicates and all the experiments were repeated at least 3 times. Scatchard Plot was calculated from the binding data by MicroSoft Excell and CricketGraph on a Macintosh computer.
(§2) Figure 6: FIG. 6 is a histogram illustrating the binding of RANTES and MIP-1α to human eosinophils. […] Human eosinophils were incubated with 0.1 nM radiolabeled RANTES and the indicated concentrations of cold chemokines. The data plotted are the means and standard deviations of duplicates for each sample.

Experiment [2] addresses T2, C-C chemokine receptor 3 (CCR3, CKR-3) of human origin, native, on blood eosinophils and basophils (human, UniProt P51677 1-355).
T2 construct: whole, on cells; also called Eos L2 receptor; eosinophilic chemokine receptor
T2 sequence (looked up): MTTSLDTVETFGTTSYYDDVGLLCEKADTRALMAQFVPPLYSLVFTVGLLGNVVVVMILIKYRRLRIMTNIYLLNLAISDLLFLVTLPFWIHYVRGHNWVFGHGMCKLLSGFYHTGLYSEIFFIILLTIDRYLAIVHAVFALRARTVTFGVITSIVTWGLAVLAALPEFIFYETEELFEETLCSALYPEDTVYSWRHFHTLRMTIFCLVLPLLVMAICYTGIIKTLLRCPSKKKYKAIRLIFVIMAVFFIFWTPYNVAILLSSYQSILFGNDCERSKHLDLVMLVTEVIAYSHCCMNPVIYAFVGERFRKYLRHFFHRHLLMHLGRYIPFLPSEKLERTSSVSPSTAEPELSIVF
Nature of the experiment: heterologous competition of radiolabeled RANTES binding on eosinophils. As to the method:
as §1, with “Cells transfected with Eos L2 receptors or normal human eosinophils purified (see above) were washed in Hanks Balanced Saline Solution (HBSS), then resuspended in binding buffer: 50 mM HEPES, 1 mM CaCl_2, 5 mM MgCl_2, 0.5% Bovine Serum Albumin (BSA), pH 7.3. In” for “In”
Figure 6: FIG. 6 is a histogram illustrating the binding of RANTES and MIP-1α to human eosinophils. […] Human eosinophils were incubated with 0.1 nM radiolabeled RANTES and the indicated concentrations of cold chemokines. […]

The target in experiment [3] is T2, C-C chemokine receptor 3 (CCR3, CKR-3) …. Nature of the experiment: inhibition of 0.1 nM 125I-MCP-3 binding to human eosinophils by varied 7B11.
The target is the same in experiment [4]. Put plainly: inhibition of 0.1 nM 125I-eotaxin binding to human eosinophils by varied 7B11.
Experiment [5] has the same target. Nature of the experiment: inhibition of 0.1 nM 125I-RANTES binding to human eosinophils by varied 7B11.
Experiment [6] shares this target. Nature of the experiment: Scatchard analysis of unlabeled eotaxin competition on human eosinophils. On the procedure: (§3) FIG. 11A) or to human eosinophils (FIG. 11B). […] After 60 minutes at room temperature, cell pellets were washed and counted. Scatchard plots of unlabeled eotaxin competition were calculated from the data (FIG. 11C, E5 cell line; FIG. 11D, eosinophils).
(§4) Competition is presented as the percentage of specific binding as calculated by $100(S-B)/(T-B)$, where S is the radioactivity of the sample, B as background binding and T as total binding without competitors. Background binding was obtained by incubating cells with radiolabeled chemokine and at least 400-fold excess of unlabeled chemokines. […] Duplicates were used throughout the experiments and the standard deviations were always less than 10% of the mean. All experiments were repeated at least three times. Curve fit was calculated by […] software.
(§5) The E5 cell line described in Example 6 was tested for its ability to bind radiolabeled eotaxin. […] In addition, both RANTES and MCP-3 were able to specifically compete for binding. None of the other chemokines tested, including MIP-1α, MIP-1β, or IL-8 were able to specifically compete for radiolabeled ligand (FIG. 12).

For experiment [7], the target named is B4. Nature of the experiment: Scatchard analysis of unlabeled eotaxin competition on E5 cells. As to the method:
as §3, §4, §5

The target in experiment [8] is T3, receptor encoded by the A31 cDNA clone (human CKR-3 / Eos L2) (human, UniProt P51677 1-355).
T3 construct: one RBL transfectant is also mentioned
T3 sequence: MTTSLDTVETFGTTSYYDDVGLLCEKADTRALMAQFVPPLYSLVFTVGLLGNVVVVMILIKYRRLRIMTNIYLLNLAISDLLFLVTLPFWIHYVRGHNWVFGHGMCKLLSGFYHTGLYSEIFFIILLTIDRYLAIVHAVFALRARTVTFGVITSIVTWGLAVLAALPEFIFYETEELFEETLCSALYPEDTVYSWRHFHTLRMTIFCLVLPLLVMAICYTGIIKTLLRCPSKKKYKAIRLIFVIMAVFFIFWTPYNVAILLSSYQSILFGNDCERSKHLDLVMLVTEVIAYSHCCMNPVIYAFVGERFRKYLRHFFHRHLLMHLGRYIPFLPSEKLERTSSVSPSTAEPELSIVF
Put plainly: Scatchard analysis, 125I-RANTES on membranes of A31-293-#20 cells. On the procedure: Plates were grown to confluence, and membranes were prepared as follows. Culture medium was removed, and the cells were washed with phosphate buffered saline. Cells were harvested by washing with TEN (40 mM TRIS, pH 7.5, 1 mM EDTA, and 150 mM NaCl). The cells were frozen in liquid nitrogen, thawed at room temperature, and the membrane fraction was collected by centrifugation in a conical tube for 10 minutes at 18,000 rpm. Each binding point was determined using one-half of the membranes harvested from a single 100 mm plate grown to confluence.
Binding assays were performed as described by Van Riper, G. et al., J. Exp. Med., 177: 851 (1993), with the following modifications. […] Binding buffer was 50 mM Hepes, 1 mM CaCl_2, 5 mM MgCl_2, 0.5% BSA, pH 7.2. Radiolabeled and cold ligand were added simultaneously to the membranes (see above), and incubated for 1.5 hours at room temperature. […] Activity retained on filters after washing was determined by scintillation counting. Filters were placed in 5 cc of scintillation fluid and were then counted in a miniaxi-beta liquid scintillation counter (United Technologies, Packard, Downers Grove, Ill.). All points were determined in triplicate, except for the point at 2 nM, which was determined in duplicate. […]

The target in experiment [9] is T4, CCR1 on stable L1.2 transfectants (UniProt P32246 1-355, limits assumed).
T4 construct: whole, on cells; also called CKR-1; CC CKR1
T4 sequence (looked up): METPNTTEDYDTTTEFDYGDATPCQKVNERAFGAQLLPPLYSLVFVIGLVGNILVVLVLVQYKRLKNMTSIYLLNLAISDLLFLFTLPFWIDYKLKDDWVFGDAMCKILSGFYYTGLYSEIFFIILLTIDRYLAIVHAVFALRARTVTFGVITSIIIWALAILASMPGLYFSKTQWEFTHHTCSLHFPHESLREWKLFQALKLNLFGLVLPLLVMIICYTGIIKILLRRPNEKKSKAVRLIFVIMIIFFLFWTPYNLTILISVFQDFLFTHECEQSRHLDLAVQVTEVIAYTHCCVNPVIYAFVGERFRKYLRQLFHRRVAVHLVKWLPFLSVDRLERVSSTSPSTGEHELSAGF
Put plainly: 125I-RANTES binding to L1.2 CCR1 transfectants.

Experiment [10] deals with T2, C-C chemokine receptor 3 (CCR3, CKR-3) …. Put plainly: Scatchard analysis, radioligand binding to human eosinophils. As to the method:
as §1, §2

B1: MIP-1α (ligand, human, UniProt P10147 23-92, looked up)
chain: ASLAADTPTACCFSYTSRQIPQNFIADYFETSSQCSKPGVIFLTKRSRQVCADPSEEWVQKYVSDLELSA
modifications: also: 125I label where used as radioligand
notes: also called macrophage inflammatory protein 1α
B1: the Kd in experiment [1] was 91 pM. This counts as picomolar.

B2: MCP-3 (ligand)
chain: not shown
modifications: 125I label where used as radioligand
notes: also called human MCP-3
As to B2, the binding result in [2] is given as “binds”.

B3: monoclonal antibody 7B11 (ATCC Accession No. HB-12195) (antibody, V domains shown)
VH: MVQLQQSGTVLARPGASVRMSCKTSGYTFTNYRMHWVRQRPGQGLEWIGSIYPGHTETTYNQNFKDKAKLTAVTSATTAYMGLSSLTNEDSAVYYCTRSGGNYWGQGTTVTVSS
VL: DIQMTQSPSSLSASLGERVSLTCRASQDIGSSLNWLQQKPDGTFIRLIYATSSLDSGVPRRFSGSRSGSDYSLTISSLESEDFVDYYCLQYATFPLTFGAGTKLEIK
As for B3, the IC50 in experiment [3] amounted to 0.0188 µg/mL; in [4] it was 0.0257 µg/mL; in [5], 0.0137 µg/mL.

On to B4, for which, in experiment [6], the Kd amounted to 500 pM.

B5: FLAG-tagged Eos L2 (CKR-3) receptor (receptor)
chain: MDYKDDDDKEFTTSLDTVETFGTTSYYDDVGLLCEKADTRALMAQFVPPLYSLVFTFGLLGNVVVVMILIKYRRLRIMTNIYLLNLAISDLLFLVTLPFWIHYVRGHNWVFGHGMCKLLSGFYHTGLYSEIFFIILLTIDRYLAIVHAVFALRARTVTFGVITSIVTWGLAVLAALPEFIFYETEELFEETLCSALYPEDTVYSWRHFHTLRMTIFCLVLPLLVMAICYTGIIKTLLRCPSKKKYKAIRLIFVIMAVFFIFWTPYNVAILLSSYQSILFGNDCERTKHLDLVMLVTEVIAYSHCCMNPVIYAFVGERFRKYLRHFFHRHLLMHLGRYIPFLPSEKLERTSSVSPSTAEPELSIVF
notes: Receptor from the 1.8 kb genomic HindIII fragment, expressed on L1.2 (L1-2) pre-B cells, 293 cells or baculovirus-infected Sf9 cells; also called Eos L2 receptor fusion protein; CKR-3/pcDNA3 product
Take B5: the Kd in [7] came out at 1500 pM.

B6: RANTES (ligand, human, UniProt P13501 24-91, looked up)
chain: SPYSSDTTPCCFAYIARPLPRAHIKEYFYTSGKCSNPAVVFVTRKNRQVCANPEKKWVREYINSLEMS
modifications: also: 125I label where used as radioligand
notes: also called cold RANTES
For the molecule B6, the Kd in experiment [8] is roughly 2500 pM; in experiment [10], 883 pM. In addition, the binding result in experiment [9] is “binds”.

As a reminder, the Kd is the free concentration of one partner at which half of the binding sites on the other are occupied at equilibrium, for simple one-to-one binding. A high value points to lower affinity. For orientation: IC50 means the concentration that inhibits the measured activity by half. Read a low IC50 as higher potency.

(Values after patent publication US7012133 (CHILDREN S MEDICAL CENTER, dated 2006).)
